According to PMC10397247:

Tests used:
4H175-AA = target: T1, 4H175-AA; test: two-hybrid library CCmax;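 further: natural log of median RNA to DNA barcode read ratio; higher means stronger binding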
T1 chain: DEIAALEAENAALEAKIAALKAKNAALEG

4H1765-AA = target: T2, 4H1765-AA; test: two-hybrid library CCmax; details: mean of both orientations;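 further: natural log of median RNA to DNA barcode read ratio; higher means stronger binding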
T2 chain: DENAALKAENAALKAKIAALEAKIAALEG

4H1821-AA = target: T3, 4H1821-AA; test: two-hybrid library CCmax; details: mean of both orientations;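 further: natural log of median RNA to DNA barcode read ratio; higher means stronger binding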
T3 chain: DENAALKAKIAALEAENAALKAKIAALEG

4H1828-AA = target: T4, 4H1828-AA; test: two-hybrid library CCmax; details: mean of both orientations;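 further: natural log of median RNA to DNA barcode read ratio; higher means stronger binding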
T4 chain: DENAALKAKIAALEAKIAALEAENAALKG

4H1930-AA = target: T5, 4H1930-AA; test: two-hybrid library CCmax; details: mean of both orientations
T5 chain: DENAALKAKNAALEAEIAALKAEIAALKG

4H2124-AA = target: T6, 4H2124-AA; test: two-hybrid library CCmax; details: mean of both orientations
T6 chain: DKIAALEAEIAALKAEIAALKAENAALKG

4H2165-AA = target: T7, 4H2165-AA; test: two-hybrid library CCmax; details: mean of both orientations
T7 chain: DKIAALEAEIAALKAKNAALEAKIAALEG

4H2253-AA = target: T8, 4H2253-AA; test: two-hybrid library CCmax; details: mean of both orientations
T8 chain: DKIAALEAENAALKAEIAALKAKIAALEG

4H2330-AA = target: T9, 4H2330-AA; test: two-hybrid library CCmax; details: mean of both orientations
T9 chain: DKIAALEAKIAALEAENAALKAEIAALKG

4H2343-AA = target: T10, 4H2343-AA; test: two-hybrid library CCmax; details: mean of both orientations
T10 chain: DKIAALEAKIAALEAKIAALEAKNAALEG

4H2466-AA = target: T11, 4H2466-AA; test: two-hybrid library CCmax; details: mean of both orientations
T11 chain: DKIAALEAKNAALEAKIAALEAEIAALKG

4H249-AA = target: T12, 4H249-AA; test: two-hybrid library CCmax; details: mean of both orientations
T12 chain: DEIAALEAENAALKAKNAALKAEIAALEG

4H2592-AA = target: T13, 4H2592-AA; test: two-hybrid library CCmax; details: mean of both orientations
T13 chain: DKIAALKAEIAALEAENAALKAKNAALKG

4H2732-AA = target: T14, 4H2732-AA; test: two-hybrid library CCmax; details: mean of both orientations
T14 chain: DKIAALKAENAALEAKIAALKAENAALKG

4H2774-AA = target: T15, 4H2774-AA; test: two-hybrid library CCmax; details: mean of both orientations
T15 chain: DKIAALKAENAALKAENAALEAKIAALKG

4H2931-AA = target: T16, 4H2931-AA; test: two-hybrid library CCmax; details: mean of both orientations
T16 chain: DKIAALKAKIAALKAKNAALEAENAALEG

4H3001-AA = target: T17, 4H3001-AA; test: two-hybrid library CCmax; details: mean of both orientations
T17 chain: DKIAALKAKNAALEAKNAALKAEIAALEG

4H3015-AA = target: T18, 4H3015-AA; test: two-hybrid library CCmax; details: mean of both orientations
T18 chain: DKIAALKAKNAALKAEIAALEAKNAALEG

4H3073-AA = target: T19, 4H3073-AA; test: two-hybrid library CCmax
T19 chain: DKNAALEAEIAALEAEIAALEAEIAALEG

4H3438-AA = target: T20, 4H3438-AA; test: two-hybrid library CCmax; details: mean of both orientations
T20 chain: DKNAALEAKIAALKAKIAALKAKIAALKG

4H347-AA = target: T21, 4H347-AA; test: two-hybrid library CCmax
T21 chain: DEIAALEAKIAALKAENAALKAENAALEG

4H406-AA = target: T22, 4H406-AA; test: two-hybrid library CCmax; details: mean of both orientations
T22 chain: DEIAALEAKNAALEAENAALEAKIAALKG

4H452-AA = target: T23, 4H452-AA; test: two-hybrid library CCmax; details: mean of both orientations
T23 chain: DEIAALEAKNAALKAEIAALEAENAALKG

4H56-AA = target: T24, 4H56-AA; test: two-hybrid library CCmax; details: mean of both orientations
T24 chain: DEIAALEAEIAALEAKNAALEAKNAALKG

4H_APH = target: T25, 4H_APH; test: two-hybrid library CCmax
T25 chain: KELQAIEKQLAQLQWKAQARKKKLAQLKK

4H_BCR = target: T26, 4H_BCR; test: two-hybrid library CCmax; details: mean of both orientations
T26 chain: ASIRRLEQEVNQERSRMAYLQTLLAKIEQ

4H_GCN4 = test: two-hybrid library CCmax
GCN2_T = test: two-hybrid library CCmax
4H2162-bA = target: T27, 4H2162-bA; test: two-hybrid library CCNG1
T27 chain: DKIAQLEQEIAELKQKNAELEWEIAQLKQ

4H2233-bA = target: T28, 4H2233-bA; test: two-hybrid library CCNG1
T28 chain: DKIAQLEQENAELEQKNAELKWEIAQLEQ

4H2253-bA = target: T29, 4H2253-bA; test: two-hybrid library CCNG1
T29 chain: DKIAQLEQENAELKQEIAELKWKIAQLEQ

4H235-bA = target: T30, 4H235-bA; test: two-hybrid library CCNG1
T30 chain: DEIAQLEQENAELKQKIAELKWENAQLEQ

4H2444-bA = target: T31, 4H2444-bA; test: two-hybrid library CCNG1
T31 chain: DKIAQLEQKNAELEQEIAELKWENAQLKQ

4H2518-bA = target: T32, 4H2518-bA; test: two-hybrid library CCNG1
T32 chain: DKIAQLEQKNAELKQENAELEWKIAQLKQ

4H2585-bA = target: T33, 4H2585-bA; test: two-hybrid library CCNG1
T33 chain: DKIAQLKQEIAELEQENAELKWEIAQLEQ

4H264-bA = target: T34, 4H264-bA; test: two-hybrid library CCNG1
T34 chain: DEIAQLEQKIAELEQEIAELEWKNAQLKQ

4H2760-bA = target: T35, 4H2760-bA; test: two-hybrid library CCNG1
T35 chain: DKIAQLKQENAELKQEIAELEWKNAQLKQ

4H2859-bA = target: T36, 4H2859-bA; test: two-hybrid library CCNG1
T36 chain: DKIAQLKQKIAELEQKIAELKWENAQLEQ

4H2931-bA = target: T37, 4H2931-bA; test: two-hybrid library CCNG1
T37 chain: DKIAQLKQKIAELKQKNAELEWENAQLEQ

4H3041-bA = target: T38, 4H3041-bA; test: two-hybrid library CCNG1
T38 chain: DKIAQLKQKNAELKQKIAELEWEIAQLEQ

4H3297-bA = target: T39, 4H3297-bA; test: two-hybrid library CCNG1
T39 chain: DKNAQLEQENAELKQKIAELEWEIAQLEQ

4H3364-bA = target: T40, 4H3364-bA; test: two-hybrid library CCNG1
T40 chain: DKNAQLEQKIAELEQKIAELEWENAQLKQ

4H3381-bA = target: T41, 4H3381-bA; test: two-hybrid library CCNG1
T41 chain: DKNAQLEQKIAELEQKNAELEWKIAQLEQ

4H349-bA = target: T42, 4H349-bA; test: two-hybrid library CCNG1
T42 chain: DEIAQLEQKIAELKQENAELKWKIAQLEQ

4H56-bA = target: T43, 4H56-bA; test: two-hybrid library CCNG1
T43 chain: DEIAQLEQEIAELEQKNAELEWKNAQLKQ

4H730-bA = target: T44, 4H730-bA; test: two-hybrid library CCNG1
T44 chain: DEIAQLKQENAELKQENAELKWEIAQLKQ

4H796-bA = target: T45, 4H796-bA; test: two-hybrid library CCNG1
T45 chain: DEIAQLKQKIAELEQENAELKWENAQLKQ

4H855-bH = target: T46, 4H855-bH; test: two-hybrid library CCNG1
T46 chain: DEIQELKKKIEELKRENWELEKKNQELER

4H932-bA = target: T47, 4H932-bA; test: two-hybrid library CCNG1
T47 chain: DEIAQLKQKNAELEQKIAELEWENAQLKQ

4H949-bA = target: T48, 4H949-bA; test: two-hybrid library CCNG1
T48 chain: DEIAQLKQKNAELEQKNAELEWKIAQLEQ

O11-bH = target: T49, O11-bH; test: two-hybrid library CCNG1
T49 chain: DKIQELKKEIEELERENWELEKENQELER

O12-bH = target: T50, O12-bH; test: two-hybrid library CCNG1
T50 chain: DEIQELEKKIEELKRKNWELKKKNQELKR

O13-bH = target: T51, O13-bH; test: two-hybrid library CCNG1
T51 chain: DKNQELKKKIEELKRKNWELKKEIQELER

O14-bH = target: T52, O14-bH; test: two-hybrid library CCNG1
T52 chain: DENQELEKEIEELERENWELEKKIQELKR

O15-bH = target: T53, O15-bH; test: two-hybrid library CCNG1
T53 chain: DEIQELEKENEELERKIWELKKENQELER

O16-bH = target: T54, O16-bH; test: two-hybrid library CCNG1
T54 chain: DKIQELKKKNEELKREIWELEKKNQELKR

O2-bH = target: T55, O2-bH; test: two-hybrid library CCNG1
T55 chain: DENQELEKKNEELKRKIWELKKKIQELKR

O3-bH = target: T56, O3-bH; test: two-hybrid library CCNG1
T56 chain: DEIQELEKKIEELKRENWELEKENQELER

O4-bH = target: T57, O4-bH; test: two-hybrid library CCNG1
T57 chain: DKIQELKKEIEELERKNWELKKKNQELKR

O5-bH = target: T58, O5-bH; test: two-hybrid library CCNG1
T58 chain: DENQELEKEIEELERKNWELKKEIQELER

O6-bH = target: T59, O6-bH; test: two-hybrid library CCNG1
T59 chain: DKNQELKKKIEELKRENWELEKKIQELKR

O7-bH = target: T60, O7-bH; test: two-hybrid library CCNG1
T60 chain: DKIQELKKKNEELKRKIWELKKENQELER

O8-bH = target: T61, O8-bH; test: two-hybrid library CCNG1
T61 chain: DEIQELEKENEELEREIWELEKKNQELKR

O9-bH = target: T62, O9-bH; test: two-hybrid library CCNG1
T62 chain: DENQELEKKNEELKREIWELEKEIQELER

Chain of 4H_GCN4 (chain, as listed by the source): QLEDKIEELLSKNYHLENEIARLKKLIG

DEIAALEAENAALEAKIAALKAKNAALEG [4H175-AA]
interaction score (4H175-AA): -0.721
interaction score (4H1765-AA): -1.18
interaction score (4H1821-AA): -1.36
interaction score (4H1828-AA): -1.69
interaction score (4H1930-AA): -1.75
interaction score (4H2124-AA): -1.39
interaction score (4H2165-AA): -1.43
interaction score (4H2253-AA): -0.981
interaction score (4H2330-AA): -1.68
interaction score (4H2343-AA): -1.82
interaction score (4H2466-AA): -1.58
interaction score (4H249-AA): 0.000294
interaction score (4H2592-AA): -1.32
interaction score (4H2732-AA): -0.776
interaction score (4H2774-AA): -0.332
interaction score (4H2931-AA): -1.11
interaction score (4H3001-AA): -0.307
interaction score (4H3015-AA): 2.21
interaction score (4H3073-AA): -2.69
interaction score (4H3438-AA): -0.317
interaction score (4H347-AA): -1.44
interaction score (4H406-AA): -1.39
interaction score (4H452-AA): 0.385
interaction score (4H56-AA): -1.56
interaction score (4H_APH): -0.714
interaction score (4H_BCR): -2.06
interaction score (4H_GCN4): -1
interaction score (GCN2_T): -0.991

DKIAQLEQEIAELKQKNAELEWEIAQLKQ [4H2162-bA]
interaction score (4H2162-bA): 0.667
interaction score (4H2233-bA): 0.431
interaction score (4H2253-bA): -0.158
interaction score (4H235-bA): 0.118
interaction score (4H2444-bA): 0.102
interaction score (4H2518-bA): 0.642
interaction score (4H2585-bA): -0.85
interaction score (4H264-bA): -1.08
interaction score (4H2760-bA): -0.382
interaction score (4H2859-bA): 0.326
interaction score (4H2931-bA): 1.13
interaction score (4H3041-bA): 1.37
interaction score (4H3297-bA): -0.125
interaction score (4H3364-bA): -0.464
interaction score (4H3381-bA): -1.2
interaction score (4H349-bA): 0.82
interaction score (4H56-bA): 0.371
interaction score (4H730-bA): 0.193
interaction score (4H796-bA): -1.31
interaction score (4H855-bH): -2.4
interaction score (4H932-bA): -1.48
interaction score (4H949-bA): -0.448

DKIQELKKEIEELERENWELEKENQELER [O11-bH]
interaction score (O11-bH): -0.129
interaction score (O12-bH): 1.01
interaction score (O13-bH): -0.515
interaction score (O14-bH): -0.342
interaction score (O15-bH): -0.515
interaction score (O16-bH): -0.352
interaction score (O2-bH): -1.24
interaction score (O3-bH): 0.233
interaction score (O4-bH): 1.29
interaction score (O5-bH): -3.76
interaction score (O6-bH): -0.451
interaction score (O7-bH): 0.102
interaction score (O8-bH): -0.273
interaction score (O9-bH): -1.15
